Measured values taken from patent US20040038299A1 (Pfizer, published 2004).

Target: T1, N-terminal FLAG-tagged full length LTβR (UniProt P36941 31-435)
T1 construct: whole, on cells; Overexpressed in HEK293 cells, immunoprecipitated from lysate with M2 beads; also called Flag-tagged LTβR; pFlag-CMV2-LTβR; not shown: N-terminal FLAG tag from pFLAG-CMV2
Test: co-immunoprecipitation in transfected HEK293 cells, Western blot
Method: For immunoprecipitation, 1×10⁸ U937 cells were treated with FLAG-LIGHT at 20 ng/ml for different time or left untreated. Cells were then harvested and lysed in 4 ml of lysis buffer (see above). Cell debris was removed by centrifugation at 14,000+ g for 10 min and resulting lysate was pre-cleared with Gamma Binding beads (Pharmacia Biotech) for 1 hour at 4° C. Then 20 µl of M2 beads were added to cell lysate and incubated at 4° C. for 3 hours. After binding, beads were washed five times with lysis buffer. Immune complexes bound to the beads were eluted with sample buffer, resolve on 4-12% SDS-PAGE gels, transferred to PVDF membrane and probed with TRAF2, TRAF3 or cIAP1 antibody. Signals were detected with HRP-conjugated secondary antibody and ECL detection kits (Amersham Pharmacia Biotech). […] The presence of Smac, LTβR, TRAF2 and cIAP1 in the immune complex were then analyzed by Western blots.
Although two peptides from Smac in the LIGHT-LTβR complex were detected by mass spectrometry, an endogenous association was not detected using Smac antibodies (Alexis Biochemicals or Cell Signaling Technology). […] Smac was expressed as a C-terminal HA-tagged fusion protein and appeared as a doublet of 28 kDa and 23 kDa on the Western blot. […]

T1 sequence (P36941 31-435): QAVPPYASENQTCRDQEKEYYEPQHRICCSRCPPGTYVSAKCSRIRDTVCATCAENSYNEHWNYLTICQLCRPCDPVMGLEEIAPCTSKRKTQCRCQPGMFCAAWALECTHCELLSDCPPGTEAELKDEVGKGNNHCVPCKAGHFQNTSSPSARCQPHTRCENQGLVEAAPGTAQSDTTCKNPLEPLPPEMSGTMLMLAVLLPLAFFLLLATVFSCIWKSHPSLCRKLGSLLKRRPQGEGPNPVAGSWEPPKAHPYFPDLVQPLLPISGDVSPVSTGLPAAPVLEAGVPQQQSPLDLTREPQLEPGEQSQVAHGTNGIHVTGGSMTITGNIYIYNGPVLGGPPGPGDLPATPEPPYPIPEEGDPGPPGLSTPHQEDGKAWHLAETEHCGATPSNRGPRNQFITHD

B1: Δ76 deletion mutant of Smac with a C-terminal HA-tag (other)
chain: RAVSLVTDSTSTFLSQTTYALIEAITEYTKAVYTLTSLYRQYTSLLGKMNSEEEDEVWQVIIGARAEMTSKHQEYLKLETTWMTAVGLSEMAAEAAYQTGADQASITARNHIQLVKLQVEEVHQLSRKAETKLAEAQIEELRQKTQEEGEERAESEQEAYLRED
notes: also called ?76Smac; ?76 Smac; not shown: C-terminal HA tag
Does B1 bind?
Result: no binding
